Laboratory results published in paper PMC4358659, “The functional interactome of PYHIN immune regulators reveals IFIX is a sensor of viral DNA”.

B1: ISD (biotinylated) (dsDNA)
DNA 1: TACAGATCTACTAGTGATCTATGACTGATCTGTACATGATCTACA
DNA 2: TGTAGATCATGTACAGATCAGTCATAGATCACTAGTAGATCTGTA
B2: ISD (unlabeled competitor) (dsDNA)
DNA 1: B1 DNA 1
DNA 2: B1 DNA 2

Legend:
GST-IFIX-HIN200 [1] = target: T1, GST-IFIX-HIN200 (human, UniProt Q6K0P9 200-492); experiment: EMSA; 2 pmol protein, 20 fmol DNA; EMSA: 10 mM Tris pH 7.5, 50 mM KCl, 1 mM DTT, 50 μg/ml BSA, ambient temperature, 30 min; conditions: protein: recombinant; tags: N-terminal GST (pGEX-4T1); label: 5'-biotin on sense strand; blunt
T1 sequence: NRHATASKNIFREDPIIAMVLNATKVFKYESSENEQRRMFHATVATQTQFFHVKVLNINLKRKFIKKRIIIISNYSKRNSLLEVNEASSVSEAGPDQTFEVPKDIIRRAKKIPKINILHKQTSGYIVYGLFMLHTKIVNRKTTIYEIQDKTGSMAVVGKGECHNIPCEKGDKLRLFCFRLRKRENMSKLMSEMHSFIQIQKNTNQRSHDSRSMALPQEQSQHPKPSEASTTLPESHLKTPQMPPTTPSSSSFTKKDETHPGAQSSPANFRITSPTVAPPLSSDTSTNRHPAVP

GST-IFIX-HIN200 [2] = target: T1, GST-IFIX-HIN200; experiment: competition; unlabeled ISD competes with biotinylated ISD (EMSA); EMSA: 10 mM Tris pH 7.5, 50 mM KCl, 1 mM DTT, 50 μg/ml BSA, ambient temperature, 30 min; conditions: protein: recombinant; tags: N-terminal GST (pGEX-4T1); blunt

Binder	binding result (GST-IFIX-HIN200 [1])	binding result (GST-IFIX-HIN200 [2])
B1	binds	
B2		binds
